Source: publication PMC10158025

Biological target: CtBP2-Gluc-N / CtBP2-Gluc-C (CtBP-Gluc-PCA reporter) (human) (UniProt P56545)
Assay: split reporter (BiFC, NanoBiT); Gluc-PCA in 293 cells co-transfected with the Gluc-N and Gluc-C fusions, luminance read; MTOB treatment gave a dose-dependent reduction of the signal

fold lower Gluc-PCA signal than the Zip-Zip dimer: 10 fold
Substance: CtBP2-Gluc-N / CtBP2-Gluc-C (CtBP-Gluc-PCA reporter), P56545 1-445 (natural protein; other documents disagree on this pair)
